The assay addresses T1, recombinant Fc-tagged hsCD33 (human, UniProt P20138 18-259).
T1 construct: Soluble staining reagent, detected with a PE-conjugated Fc-specific secondary antibody; not shown: Fc tag
As to the kind of experiment: flow cytometry; JNL cells displaying the scFv CAR, recombinant Fc-tagged hsCD33, PE anti-Fc secondary. As to the method: FIG. 32 is an image depicting cross-reactivity of T cells expressing scFvs targeting CD33 to cynomolgus CD33 (cyCD33) by flow cytometry. JNL cells transduced with a lentiviral vector expressing scFv's raised against hsCD33 were incubated with either recombinant Fc-tagged hsCD33 (dotted line) or cyCD33 (solid line) followed by incubation with an Fc-specific secondary antibody conjugated to phycoerythrin.
Finally, scFv cross-reactivity to cynomolgus CD33 (cyCD33) was assessed by flow cytometry as depicted in FIG. 32. JNL cells transduced with a lentiviral vector expressing scFv's raised against hsCD33 were incubated with either recombinant Fc-tagged hsCD33 (red line) or cyCD33 (blue line) followed by incubation with an Fc-specific secondary antibody conjugated to phycoerythrin. While scFv clones CD33-1, -2, -3, -4, -5, -6, -7, -9, and CD33-UPenn were capable of binding hsCD33, we note that only scFv clone CD33-5 appeared to be cross-reactive to both hsCD33 and cyCD33 (FIG. 32).

T1 sequence (P20138 18-259 limits assumed): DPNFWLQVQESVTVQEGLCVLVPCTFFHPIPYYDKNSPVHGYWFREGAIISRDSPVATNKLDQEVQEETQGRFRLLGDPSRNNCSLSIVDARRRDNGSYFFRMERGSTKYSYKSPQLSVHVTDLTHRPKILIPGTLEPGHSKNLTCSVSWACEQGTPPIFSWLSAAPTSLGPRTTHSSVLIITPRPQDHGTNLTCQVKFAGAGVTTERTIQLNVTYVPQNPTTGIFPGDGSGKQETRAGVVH

B1: CD33-UPenn (scFv based on the sequence of Mylotarg; humanized My96) (scFv, not shown: small tags and cut ends)
chain: EIVLTQSPGSLAVSPGERVTMSCKSSQSVFFSSSQKNYLAWYQQIPGQSPRLLIYWASTRESGVPDRFTGSGSGTDFTLTISSVQPEDLAIYYCHQYLSSRTFGQGTKLEIKRGGGGSGGGGSSGGGSQVQLQQPGAEVVKPGASVKMSCKASGYTFTSYYIHWIKQTPGQGLEWVGVIYPGNDDISYNQKFQGKATLTADKSSTTAYMQLSSLTSEDSAVYYCAREVRLRYFDVWGQGTTVTVSS
notes: also called CAR33-UPenn
Consider B1, for which the binding result is “binds”.

(Values after patent US20160096892A1 (Novartis, published 2016).)
